This assay concerns the target Recombinant human S100A4 (human) (UniProt P26447). As to the kind of experiment: SPR; BIAcore 2000; 2000 RU of recombinant human S100A4 immobilized covalently on a CM4 chip; soluble AR or NRG as analyte. Background: In SPR one partner is held on a chip, and binding of the other changes the refractive index at the surface.

Broadly, the Kd is the constant that tells how readily two partners part at equilibrium.

Recombinant human S100A4 (human), sequence (P26447 whole entry): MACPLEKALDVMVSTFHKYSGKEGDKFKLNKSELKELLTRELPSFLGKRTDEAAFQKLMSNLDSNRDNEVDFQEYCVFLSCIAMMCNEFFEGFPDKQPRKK

On to “Neuregulin 1 (from UniProt Q02297 20-241) (ligand)”, for which the Kd came out at 19.9 nM.

Values taken from PMC6071530.
